# From article PMC4113749 (Toxins, 2014)
# B1: TcdA^1102–1847 (intermediate domain of toxin A) (domain or fragment)
# chain: SAGIPSLVNNELILHDKATSVVNYFNHLSESKKYGPLKTEDDKILVPIDDLVISEIDFNNNSIKLGTCNILAMEGGSGHTVTGNIDHFFSSPSISSHIPSLSIYSAIGIETENLDFSKKIMMLPNAPSRVFWWETGAVPGLRSLENDGTRLLDSIRDLYPGKFYWRFYAFFDYAITTLKPVYEDTNIKIKLDKDTRNFIMPTITTNEIRNKLSYSFDGAGGTYSLLLSSYPISTNINLSKDDLWIFNIDNEVREISIENGTIKKGKLIKDVLSKIDINKNKLIIGNQTIDFSGDIDNKDRYIFLTCELDDKISLIIEINLVAKSYSLLLSGDKNYLISNLSNTIEKINTLGLDSKNIAYNYTDESNNKYFGAISKTSQKSIIHYKKDSKNILEFYNDSTLEFNSKDFIAEDINVFMKDDINTITGKYYVDNNTDKSIDFSISLVSKNQVKVNGLYLNESVYSSYLDFVKNSDGHHNTSNFMNLFLDNISFWKLFGFENINFVIDKYFTLVGKTNLGYVEFICDNNKNIDIYFGEWKTSSSKSTIFSGNGRNVVVEPIYNPDTGEDISTSLDFSYEPLYGIDRYINKVLIAPDLYTSLININTNYYSNEYYPEIIVLNPNTFHKKVNINLDSSSFEYKWSTEGSDFILVRYLEESNKKILQKIRIKGILSNTQSFNKMSIDFKDIKKLSLGYIMSNFKSFNSENELDRDHLGFKIIDNKTYYYDEDSKLVKGLININNSLFYFDPIE
# B2: TcdA^1–1874-EGFP (domain or fragment)
# chain: MSLISKEELIKLAYSIRPRENEYKTILTNLDEYNKLTTNNNENKYLQLKKLNESIDVFMNKYKTSSRNRALSNLKKDILKEVILIKNSNTSPVEKNLHFVWIGGEVSDIALEYIKQWADINAEYNIKLWYDSEAFLVNTLKKAIVESSTTEALQLLEEEIQNPQFDNMKFYKKRMEFIYDRQKRFINYYKSQINKPTVPTIDDIIKSHLVSEYNRDETVLESYRTNSLRKINSNHGIDIRANSLFTEQELLNIYSQELLNRGNLAAASDIVRLLALKNFGGVYLDVDMLPGIHSDLFKTISRPSSIGLDRWEMIKLEAIMKYKKYINNYTSENFDKLDQQLKDNFKLIIESKSEKSEIFSKLENLNVSDLEIKIAFALGSVINQALISKQGSYLTNLVIEQVKNRYQFLNQHLNPAIESDNNFTDTTKIFHDSLFNSATAENSMFLTKIAPYLQVGFMPEARSTISLSGPGAYASAYYDFINLQENTIEKTLKASDLIEFKFPENNLSQLTEQEINSLWSFDQASAKYQFEKYVRDYTGGSLSEDNGVDFNKNTALDKNYLLNNKIPSNNVEEAGSKNYVHYIIQLQGDDISYEATCNLFSKNPKNSIIIQRNMNESAKSYFLSDDGESILELNKYRIPERLKNKEKVKVTFIGHGKDEFNTSEFARLSVDSLSNEISSFLDTIKLDISPKNVEVNLLGCNMFSYDFNVEETYPGKLLLSIMDKITSTLPDVNKNSITIGANQYEVRINSEGRKELLAHSGKWINKEEAIMSDLSSKEYIFFDSIDNKLKAKSKNIPGLASISEDIKTLLLDASVSPDTKFILNNLKLNIESSIGDYIYYEKLEPVKNIIHNSIDDLIDEFNLLENVSDELYELKKLNNLDEKYLISFEDISKNNSTYSVRFINKSNGESVYVETEKEIFSKYSEHITKEISTIKNSIITDVNGNLLDNIQLDHTSQVNTLNAAFFIQSLIDYSSNKDVLNDLSTSVKVQLYAQLFSTGLNTIYDSIQLVNLISNAVNDTINVLPTITEGIPIVSTILDGINLGAAIKELLDEHDPLLKKELEAKVGVLAINMSLSIAATVASIVGIGAEVTIFLLPIAGISAGIPSLVNNELILHDKATSVVNYFNHLSESKKYGPLKTEDDKILVPIDDLVISEIDFNNNSIKLGTCNILAMEGGSGHTVTGNIDHFFSSPSISSHIPSLSIYSAIGIETENLDFSKKIMMLPNAPSRVFWWETGAVPGLRSLENDGTRLLDSIRDLYPGKFYWRFYAFFDYAITTLKPVYEDTNIKIKLDKDTRNFIMPTITTNEIRNKLSYSFDGAGGTYSLLLSSYPISTNINLSKDDLWIFNIDNEVREISIENGTIKKGKLIKDVLSKIDINKNKLIIGNQTIDFSGDIDNKDRYIFLTCELDDKISLIIEINLVAKSYSLLLSGDKNYLISNLSNTIEKINTLGLDSKNIAYNYTDESNNKYFGAISKTSQKSIIHYKKDSKNILEFYNDSTLEFNSKDFIAEDINVFMKDDINTITGKYYVDNNTDKSIDFSISLVSKNQVKVNGLYLNESVYSSYLDFVKNSDGHHNTSNFMNLFLDNISFWKLFGFENINFVIDKYFTLVGKTNLGYVEFICDNNKNIDIYFGEWKTSSSKSTIFSGNGRNVVVEPIYNPDTGEDISTSLDFSYEPLYGIDRYINKVLIAPDLYTSLININTNYYSNEYYPEIIVLNPNTFHKKVNINLDSSSFEYKWSTEGSDFILVRYLEESNKKILQKIRIKGILSNTQSFNKMSIDFKDIKKLSLGYIMSNFKSFNSENELDRDHLGFKIIDNKTYYYDEDSKLVKGLININNSLFYFDPIEFNLVTGWQTINGKKYYFDINTGAALTS
# B3: isolated TcdA CROPs (TcdA^1875–2710) (domain or fragment)
# chain: YKIINGKHFYFNNDGVMQLGVFKGPDGFEYFAPANTQNNNIEGQAIVYQSKFLTLNGKKYYFDNNSKAVTGWRIINNEKYYFNPNNAIAAVGLQVIDNNKYYFNPDTAIISKGWQTVNGSRYYFDTDTAIAFNGYKTIDGKHFYFDSDCVVKIGVFSTSNGFEYFAPANTYNNNIEGQAIVYQSKFLTLNGKKYYFDNNSKAVTGLQTIDSKKYYFNTNTAEAATGWQTIDGKKYYFNTNTAEAATGWQTIDGKKYYFNTNTAIASTGYTIINGKHFYFNTDGIMQIGVFKGPNGFEYFAPANTDANNIEGQAILYQNEFLTLNGKKYYFGSDSKAVTGWRIINNKKYYFNPNNAIAAIHLCTINNDKYYFSYDGILQNGYITIERNNFYFDANNESKMVTGVFKGPNGFEYFAPANTHNNNIEGQAIVYQNKFLTLNGKKYYFDNDSKAVTGWQTIDGKKYYFNLNTAEAATGWQTIDGKKYYFNLNTAEAATGWQTIDGKKYYFNTNTFIASTGYTSINGKHFYFNTDGIMQIGVFKGPNGFEYFAPANTDANNIEGQAILYQNKFLTLNGKKYYFGSDSKAVTGLRTIDGKKYYFNTNTAVAVTGWQTINGKKYYFNTNTSIASTGYTIISGKHFYFNTDGIMQIGVFKGPDGFEYFAPANTDANNIEGQAIRYQNRFLYLHDNIYYFGNNSKAATGWVTIDGNRYYFEPNTAMGANGYKTIDNKNFYFRNGLPQIGVFKGSNGFEYFAPANTDANNIEGQAIRYQNRFLHLLGKIYYFGNNSKAVTGWQTINGKVYYFMPDTAMAAAGGLFEIDGVIYFFGVDGVKAPGIYG
# Assays:
# Conditions in all cases: both partners purified
# [1] = target: GST-fused TcdA CROPs (combined repetitive oligopeptides of Clostridium difficile toxin A) (Clostridium difficile (strain VPI 10463), UniProt P16154 1875-2710); assay: pull-down
# [2] = target: recombinant Rac1 (UniProt P63000 1-192); assay: MST
# [3] = target: B2; assay: MST
binder,measurement,setting,value
B1,binding result,[1],binds
B2,Kd,[2],3320 ± 360 nM
B3,Kd,[3],1440 ± 70 nM
